Laboratory results as given in patent US20190316091A1.

Molecular target: immune complexes of Dylight 650-labeled bovine serum albumin, polyclonal rabbit anti-BSA and human serum complement (bovine) (UniProt P02769)
Assay: cell-based or functional assay

UniProt P02769, sequence (P02769 25-607, one chain of several): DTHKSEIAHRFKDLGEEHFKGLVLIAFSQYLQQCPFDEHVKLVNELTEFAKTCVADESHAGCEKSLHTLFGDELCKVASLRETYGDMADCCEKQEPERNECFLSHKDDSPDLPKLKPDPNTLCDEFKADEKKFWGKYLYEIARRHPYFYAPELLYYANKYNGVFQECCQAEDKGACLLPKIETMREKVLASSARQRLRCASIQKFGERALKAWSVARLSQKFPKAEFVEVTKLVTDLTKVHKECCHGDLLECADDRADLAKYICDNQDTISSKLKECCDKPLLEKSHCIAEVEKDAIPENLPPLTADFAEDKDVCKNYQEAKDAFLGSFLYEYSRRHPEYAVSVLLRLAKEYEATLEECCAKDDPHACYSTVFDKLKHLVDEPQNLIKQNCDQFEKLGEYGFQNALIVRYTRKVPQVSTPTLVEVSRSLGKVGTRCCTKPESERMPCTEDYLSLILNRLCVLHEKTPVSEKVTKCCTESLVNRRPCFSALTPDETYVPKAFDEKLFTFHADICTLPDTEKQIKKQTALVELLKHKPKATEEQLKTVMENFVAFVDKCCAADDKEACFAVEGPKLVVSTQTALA

uptake of labeled immune complexes by PMA-activated U937 macrophages in co-culture (flow cytometry fluorescence): 2 fold
Substance: complement receptor 1 (CR1) over-expressed on the surface of cultured erythroid cells (from UniProt P17927 42-2039)
